{"source": "paper PMC4831024", "target": "Ku70/Ku80ΔC heterodimer, P12956;P13010", "assay": "fluorescence polarisation", "details": "read at the highest Ku concentration, about 14 µM KuΔC; 100 nM fluorescein-labeled peptide; room temperature; 20 mM HEPES pH 7.5, 200 mM NaCl, 0.5 mM TCEP; parent: est. 190; read off a plot", "data": [{"substance": "fluorescein-labelled WRN-nA peptide (N-terminal KBM of WRN) W18A", "values": [{"measurement": "response", "value": 19, "unit": "millidegrees"}]}]}
